Key:
[1] = target: hyper-phosphorylated P301L mutant human 4R0N tau from rTg4510 mouse brain (64 and 70 kDa species; P3 / brain extract) (human) (UniProt P10636); assay: MSD ELISA on immobilised P3; ratio of binding to Tg4510 over wt mouse material
[2] = target: hyper-phosphorylated P301L mutant human 4R0N tau from rTg4510 mouse brain (64 and 70 kDa species; P3 / brain extract) (human) (UniProt P10636); assay: immunodepletion of rTg4510 brain extracts; western blot quantification (FIG. 14)
[3] = target: hyper-phosphorylated P301L mutant human 4R0N tau from rTg4510 mouse brain (64 and 70 kDa species; P3 / brain extract) (human) (UniProt P10636); assay: immunodepletion of rTg4510 brain extract with antibody on Protein G Dynabeads; western blot
[4] = target: hyper-phosphorylated P301L mutant human 4R0N tau from rTg4510 mouse brain (64 and 70 kDa species; P3 / brain extract) (human) (UniProt P10636); assay: cell-based or functional assay
[5] = target: hyper-phosphorylated P301L mutant human 4R0N tau from rTg4510 mouse brain (64 and 70 kDa species; P3 / brain extract) (human) (UniProt P10636); assay: fluid phase MSD ELISA: antibody mixed with rTg4510 P3 in solution, capture on C10-2 coated plates
[6] = target: aggregated tau in rTg4510 brain extract (Cisbio assay) (human) (UniProt P10636); assay: immunodepletion of rTg4510 brain extract with antibody on Protein G Dynabeads; Cisbio aggregation assay
aggregated tau in rTg4510 brain extract (Cisbio assay) (human), sequence (P10636 other isoform, or with tags, fused parts or gaps): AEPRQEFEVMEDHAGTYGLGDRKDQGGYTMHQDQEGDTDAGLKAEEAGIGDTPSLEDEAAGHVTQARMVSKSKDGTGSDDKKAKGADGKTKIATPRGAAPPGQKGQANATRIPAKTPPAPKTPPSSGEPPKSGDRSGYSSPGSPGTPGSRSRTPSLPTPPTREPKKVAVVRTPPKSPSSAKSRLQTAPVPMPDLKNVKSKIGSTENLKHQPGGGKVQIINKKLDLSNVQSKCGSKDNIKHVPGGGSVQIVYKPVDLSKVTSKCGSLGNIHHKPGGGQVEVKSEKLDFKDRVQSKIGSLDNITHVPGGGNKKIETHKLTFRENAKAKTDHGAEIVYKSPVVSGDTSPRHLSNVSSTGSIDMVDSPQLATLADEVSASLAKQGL

hyper-phosphorylated P301L mutant human 4R0N tau from rTg4510 mouse brain (64 and 70 kDa species; P3 / brain extract) (human), sequence (P10636 other isoform, or with tags, fused parts or gaps P301L P301L): as the sequence (P10636 other isoform, or with tags, fused parts or gaps) above

B1: 4E4 antibody (antibody, from another filing, V domains shown)
VH: EVQLVESGGGLVQPGGSLKLSCAASGFNFNISAIHWVRQASGKGLEWVGRIRSKSHNYATLYAASLKGRFTLSRDDSRNTAYLQMSSLQTEDMAVYYCTVLSANYDTFDYWGQGTLVTVSS
VL: SYELTQPPSVSVSPGQTARISCFGDTLPKQYTYWYQQKPGQAPVLVIYKDTERPSGIPERFSGSSSGTTVTLTISGVQAEDEADYYCLSADNSATWVFGGGTKVTVL
How did the TG/wt [1] turn out when B1 was run?
The TG/wt was 1 fold.

B2: Antibody D1.2 (antibody, mouse IgG2b, kappa, V domains shown)
VH: QVQLQQSGAELVRPGASVTLSCKASGNTFTDYEIHWVKQTPVHGLEWIGAIDPETGNTAYNQKFKGKARLTADKSSSTAYMELRSLTSEDSAVYYCTRSRGFDYWGQGTTLTVSS
VL: DVMMTQTPLSLPVSLGDQASISCRSSQSLVHSNGNTYLHWHLQKPGQSPKFLIYKVSNRFSGVPDRFSGSGSGTDFTLKISRVEAEDLGVYFCSQSTHVPFTFGSGTKLEIKR
For B2, which percent reduction of the 64 kDa band [2] is on record?
The percent reduction of the 64 kDa band was 90%.

And the percent removed by immunodepletion [3]?
The percent removed by immunodepletion was 95%.

B3: Antibody C10-2 (murine) (antibody, mouse IgG1, kappa, V domains shown)
VH: QVQLQQSDAELVKPGASVKISCKASGYTFTDRTIHWVKQRPEQGLEWIGYIYPGDGSTKYNENFKGKATLTADKSSSTAYMQLNSLTSEDSAVYFCARRGAMDYWGQGTSVTVSS
VL: DVQMIQSPSSLSASLGDIVTMTCQASQGTSINLNWFQQKPGKAPKLLIYGASNLEDGVPSRFSGSRYGTDFTLTISSLEDEDMATYFCLQHTYLPFTFGSGTKLEIKR
Which results are given for B3?
percent reduction of the 64 kDa band [2]: 90%; prevention of insoluble tau in HEK293 cells seeded with immunodepleted rTg4510 homogenate (western blot) [4]: 97%; prevention of tau aggregation in HEK293 cells seeded with immunodepleted rTg4510 homogenate (Cisbio assay) [4]: 88%; IC50 [5]: 20 nM; percent removed by immunodepletion [3]: 95%; percent of tau aggregates removed [6]: 99%; TG/wt [1]: 118 fold

From patent US20170015738A1
